Laboratory results taken from paper PMC8028696 (Journal of Molecular Biology, 2021).

B1: IgG 15036 (antibody, V domains shown)
VH: EVQLVESGGGLVQPGGSLRLSCAASGFDFTAYDIHWVRQAPGKGLEWVAGISASGGYTAYADSVKGRFTISADTSKNTAYLQMNSLRAEDTAVYYCARDGFHSYALDYWGQGTLVTVSS
VL: DIQMTQSPSSLSASVGDRVTITCRASQSVSSAVAWYQQKPGKAPKLLIYSASSLYSGVPSRFSGSRSGTDFTLTISSLQPEDFATYYCQQWYSLFTFGQGTKVEIK
B2: IgG 15046 (antibody, V domains shown)
VH: EVQLVESGGGLVQPGGSLRLSCAASGFDFGSYAMHWVRQAPGKGLEWVAGIYASGGYTDYADSVKGRFTISADTSKNTAYLQMNSLRAEDTAVYYCARGWSYYWGFDYWGQGTLVTVSS
VL: DIQMTQSPSSLSASVGDRVTITCRASQSVSSAVAWYQQKPGKAPKLLIYSASSLYSGVPSRFSGSRSGTDFTLTISSLQPEDFATYYCQQYDYGLFTFGQGTKVEIK

What was measured:
[1] = target: T1, Trimeric SARS-CoV-2 S-protein (SARS-CoV-2 (P0DTC2 reference)); strain …, UniProt P0DTC2, biotin (site-specific, BirA, on the AviTag)); test: BLI
[2] = target: T1, Trimeric SARS-CoV-2 S-protein; test: ELISA

| Binder | Kd [1] [nM] | EC50 [2] [nM] |
| --- | --- | --- |
| B1 | 0.1 ± 0.1 | 0.5 ± 0.1 |
| B2 | 2.3 ± 0.6 | 1.3 ± 0.3 |
